Measured values from patent US20190062420A1 (Janssen / Centocor, published 2019).

T1: human FcγRIIB (NM_004001) expressed on cells (human, UniProt P31994 43-310)
T1 construct: Transiently expressed on Expi293F cells; also called Expi293F FcγRIIB; HEK293F cells expressing FcγRIIB
T1 sequence: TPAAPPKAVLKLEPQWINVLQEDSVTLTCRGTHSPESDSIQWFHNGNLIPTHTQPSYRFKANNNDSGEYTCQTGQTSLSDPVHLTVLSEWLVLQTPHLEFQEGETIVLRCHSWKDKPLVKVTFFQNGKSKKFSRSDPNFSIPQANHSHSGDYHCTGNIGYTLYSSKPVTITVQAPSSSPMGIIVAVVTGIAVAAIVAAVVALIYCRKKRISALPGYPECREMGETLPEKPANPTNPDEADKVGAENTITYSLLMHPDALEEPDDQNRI

T2: human FcγRIIA (NM_021642) expressed on cells (human, UniProt P12318 36-317)
T2 construct: Transiently expressed on Expi293F cells; also used here for FcγRIIA on human macrophages in the ADCP assay; also called Expi293F FcγRIIA; HEK293F cells expressing FcγRIIA
T2 sequence: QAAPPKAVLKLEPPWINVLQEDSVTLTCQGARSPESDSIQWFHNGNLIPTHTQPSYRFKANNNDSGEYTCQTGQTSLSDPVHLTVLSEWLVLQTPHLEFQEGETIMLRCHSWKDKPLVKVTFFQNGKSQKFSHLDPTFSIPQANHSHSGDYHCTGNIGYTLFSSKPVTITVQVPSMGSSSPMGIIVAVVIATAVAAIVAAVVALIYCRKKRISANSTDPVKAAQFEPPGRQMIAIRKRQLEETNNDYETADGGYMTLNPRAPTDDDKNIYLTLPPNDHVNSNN

T3: human OX40 expressed on HEK-Blue: OX40 cells (human, UniProt P43489 29-277)
T3 construct: also called CD134
T3 sequence: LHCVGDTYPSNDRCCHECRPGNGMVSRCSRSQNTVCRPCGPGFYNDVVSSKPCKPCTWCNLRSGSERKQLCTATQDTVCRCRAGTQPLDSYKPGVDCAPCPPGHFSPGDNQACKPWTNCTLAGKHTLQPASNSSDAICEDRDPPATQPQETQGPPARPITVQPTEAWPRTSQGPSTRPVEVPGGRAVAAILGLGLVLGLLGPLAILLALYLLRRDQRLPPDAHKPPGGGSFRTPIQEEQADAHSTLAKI


Key:
[1] = target: T1, human FcγRIIB (NM_004001) expressed on …; assay: flow cytometry; Raji cells (express predominantly FcγRIIB)
Method: (§1) 2×10⁵ cells per well were seeded in 96-well plate and blocked in BSA Stain Buffer (BD Biosciences, San Jose, USA) for 30 min at 4° C. Cells were incubated with test mAbtyrin on ice for 1.5 h at 4° C. After being washed twice with BSA stain buffer, the cells were incubated with R-PE labeled anti-human or anti-mouse IgG secondary antibody (Jackson Immunoresearch Laboratories) for 45 min at 4° C. The cells were washed twice in stain buffer and then resuspended in 150 μL of Stain Buffer containing 1:200 diluted DRAQ7 live/dead stain (Cell Signaling Technology, Danvers, USA). PE and DRAQ7 signals of the stained cells were detected by Miltenyi MACSQuant flow cytometer (Miltenyi Biotec, Auburn, USA) using B2 and B4 channel respectively. Live cells were gated on DRAQ7 exclusion and the geometric mean fluorescence signals were determined for at least 10,000 live events collected. FlowJo software (Tree Star) was used for analysis. Data was plotted as the logarithm of antibody concentration versus mean fluorescence signals. Nonlinear regression analysis was performed by GraphPad Prism 6 (GraphPad Software, Inc.) and EC₅₀ values were calculated.
Raji cell is a cell line derived from B cells that express predominantly FcγRIIB. The binding of mAbtyrins on Raji cells were investigated by flow cytometry assay described for testing mAbtyrin binding to FcγR. Binding of the mAbtyrins were detected by flow cytometry using a PE-labeled Goat F(ab′) against Human IgG(γ).

[2] = target: T2, human FcγRIIA (NM_021642) expressed on …; assay: flow cytometry; Expi293F cells transfected with FcγRIIA
Method: (§2) Plasmids expressing cDNAs encoding human FcγRI (NM_000566) (SEQ ID NO: 44), FcγRIIA (NM_021642) (SEQ ID NO: 2), FcγRIIB (NM_004001) (SEQ ID NO: 3), and FcγRIIIA (NM_000569) (SEQ ID NO: 45) (Origene) were transiently transfected into Expi293F cells by ExpiFectamine293 transfection kit (Life Technologies). Flow cytometry assays were performed 48 h after transfection.
as §1

[3] = target: T2, human FcγRIIA (NM_021642) expressed on …; assay: cell-based or functional assay
[4] = target: T1, human FcγRIIB (NM_004001) expressed on …; assay: cell-based or functional assay
[5] = target: T3, human OX40 expressed on HEK-Blue: OX40 …; assay: flow cytometry; HEK-Blue: OX40 cells
Method: as §1
The binding of mAbtyrins on OX40 expressed on cell surface were investigated by flow cytometry assay described for testing mAbtyrin binding to FcγR. A stable HEK-Blue reporter cell line expressing human OX40 (HEK-Blue: OX40) was established by transfection OX40 expression plasmid (pUNO1-hOX40) into HEK-Blue™ Null 1 cells engineered to express a secreted embryonic alkaline phosphatase (SEAP) reporter gene under the control of NF-κB-inducible promoter (IFN-β minimal promoter). mAbtyrins were incubated with HEK-Blue: OX40 cells and the binding was detected by flow cytometry using a PE-labeled Goat F(ab′)₂ against Human IgG(γ).

[6] = target: T1, human FcγRIIB (NM_004001) expressed on …; assay: flow cytometry; Expi293F cells transfected with FcγRIIB
Method: as §2, §1

[7] = target: T1, human FcγRIIB (NM_004001) expressed on …; assay: flow cytometry; Raji cells (express predominantly FcγRIIB); remark: listed apart in the source

Row | Binder | Binding to Raji cells mean signals at 10 µg/ml [1] [mean fluorescence signal] | EC50 [1] [µg/mL] | EC50 [2] [µg/mL] | % OX40 cell killed by macrophages (ADCP, 1 µg/ml) [3] [%] | % activity at 1 µg/ml with Raji cells (HEK-Blue: OX40 NF-κB reporter, relative to 1 µg/ml OX40 ligand) [4] [%] | fold of agonism enhancement upon crosslinking (Raji cells) [4] [fold] | Binding to HEK-Blue: OX40 cells (mean signal at 1 µg/ml) [5] [mean fluorescence signal] | EC50 [6] [µg/mL] | fold binding signal over OX40SF2IgG2sigma at 10 µg/mL [7] [fold]
1 | OX40SF2IgG2sigma_R2BS9_HC-C (bispecific antibody, mAbtyrin: anti-OX40 antibody OX40SF2, effector silent IgG2sigma, with linker and R2BS9 FN3 domain at the C-terminus of the heavy chain; also called mAbtyrin) heavy: QVQLVQSGAEVKKPGSSVKVSCKASGYTFKDYTMHWVRQAPGQGLEWIGGIYPNNGGSTYNQNFKDRVTLTADKSTSTAYMELSSLRSEDTAVYYCARMGYHGPHLDFDVWGQGTTVTVSSASTKGPSVFPLAPCSRSTSESTAALGCLVKDYFPEPVTVSWNSGALTSGVHTFPAVLQSSGLYSLSSVVTVPSSNFGTQTYTCNVDHKPSNTKVDKTVERKCCVECPPCPAPPAAASSVFLFPPKPKDTLMISRTPEVTCVVVDVSAEDPEVQFNWYVDGVEVHNAKTKPREEQFNSTFRVVSVLTVLHQDWLNGKEYKCKVSNKGLPSSIEKTISKTKGQPREPQVYTLPPSREEMTKNQVSLTCLVKGFYPSDIAVEWESNGQPENNYKTTPPMLDSDGSFFLYSKLTVDKSRWQQGNVFSCSVMHEALHNHYTQKSLSLSPGKGGGGGSGGGGSGGGGSGGGGSLPAPKNLVVSRVTEDSARLSWTAPDAAFDSFWIYYLEYWRGGEAIVLTVPGSERSYDLTGLKPGTEYFVQIHGVKGGQYSYPLSAIFTT light: DIQMTQSPSSLSASVGDRVTITCKASQDVGAAVAWYQQKPGKAPKLLIYWASTRHTGVPSRFSGSGSGTDFTLTISSLQPEDFATYYCQQYINYPLTFGGGTKVEIKRTVAAPSVFIFPPSDEQLKSGTASVVCLLNNFYPREAKVQWKVDNALQSGNSQESVTEQDSKDSTYSLSSTLTLSKADYEKHKVYACEVTHQGLSSPVTKSFNRGEC | 3260 | > 10 | 0.498 | 85 | 88.1 | 21 | 8900 | 1.51 | ≥ 6
2 | OX40SF2IgG2sigma_R2BS12_HC-C (bispecific antibody, mAbtyrin: anti-OX40 antibody OX40SF2, effector silent IgG2sigma, with linker and R2BS12 FN3 domain at the C-terminus of the heavy chain; also called mAbtyrin) heavy: QVQLVQSGAEVKKPGSSVKVSCKASGYTFKDYTMHWVRQAPGQGLEWIGGIYPNNGGSTYNQNFKDRVTLTADKSTSTAYMELSSLRSEDTAVYYCARMGYHGPHLDFDVWGQGTTVTVSSASTKGPSVFPLAPCSRSTSESTAALGCLVKDYFPEPVTVSWNSGALTSGVHTFPAVLQSSGLYSLSSVVTVPSSNFGTQTYTCNVDHKPSNTKVDKTVERKCCVECPPCPAPPAAASSVFLFPPKPKDTLMISRTPEVTCVVVDVSAEDPEVQFNWYVDGVEVHNAKTKPREEQFNSTFRVVSVLTVLHQDWLNGKEYKCKVSNKGLPSSIEKTISKTKGQPREPQVYTLPPSREEMTKNQVSLTCLVKGFYPSDIAVEWESNGQPENNYKTTPPMLDSDGSFFLYSKLTVDKSRWQQGNVFSCSVMHEALHNHYTQKSLSLSPGKGGGGGSGGGGSGGGGSGGGGSLPAPKNLVVSRVTEDSARLSWTAPDAAFDSFLIAYAEYWEGGEAVVLTVPGSERSYDLTGLKPGTEYFVQINGVKGGFWSIPLSAIFTT light: DIQMTQSPSSLSASVGDRVTITCKASQDVGAAVAWYQQKPGKAPKLLIYWASTRHTGVPSRFSGSGSGTDFTLTISSLQPEDFATYYCQQYINYPLTFGGGTKVEIKRTVAAPSVFIFPPSDEQLKSGTASVVCLLNNFYPREAKVQWKVDNALQSGNSQESVTEQDSKDSTYSLSSTLTLSKADYEKHKVYACEVTHQGLSSPVTKSFNRGEC | 2610 | > 10 | 0.302 | 92 | 96.3 | 31 | 9710 | 0.926 | ≥ 6
